# Publication PMC2702000 (PLoS Pathogens, 2009)
# Experiments:
# [1] = biological target: the molecule itself; test: solution NMR structure (inter-monomer NOEs, PRE, RDCs)
# [2] = biological target: the molecule itself; test: AUC
protein,measurement,setting,value
"ETGTLIVNSVLLFLAFVVFLLVTLAILTALR [ETM peptide, transmembrane domain of SARS-CoV E (residues 8-38)]",binding result,[1],binds
full length SARS-CoV E protein (natural protein) MYSFVSEETGTLIVNSVLLFLAFVVFLLVTLAILTALRLCAYCCNIVNVSLVKPTVYVYSRVKNLNSSEGVPDLLV,stoichiometry N,[2],5
EETGTLIVNSVLLFLAFVVFLLVTLAILTALRLCAY [synthetic ETM spanning residues 7-42 of SARS-CoV E],stoichiometry N,[2],5
